Ends that are not written are not given here.
Experiments:
[1] = test system: Ramos (B) lymphocyte adhesion to HUVE monolayers; experiment: Endothelial cell adhesion assay, Ramos cells on HUVE monolayers; assay type: cell-based, human; settings: Table XI
Description: (§1) HUVEs were incubated with IL-1 β (1 ng/ml) or in some experiments with TNF α (10 ng/ml) for 6–24 hours. At the end of this incubation the HUVE monolayers were washed and used in the adhesion assay.
(§2) Human umbilical vein endothelial cells (HUVEs) were cultured in 48 well plates as described (supra). To measure adherence of lymphocytes to HUVE monolayer cultures, lymphocytes were labeled with Na2 ^51CrO4 (50 μCi/ml) for 2–4 hours), washed, and then 10^5 lymphocytes were incubated with HUVE monolayers in the presence or absence of inhibitory antibodies or CS-1 derived peptides. The lymphocytes were allowed to adhere for 30 minutes at 37°. Non-adherent cells were subsequently removed by washing with PBS, and the adherent cells were dissolved in SDS/NaOH. Bound ^51Cr-cpm were quantitated in a gamma counter. In some experiments, endothelial cells were activated prior to the adhesion assay by incubating with IL-1 β (1 ng/ml) or […] (10 ng/ml) for 6–24 hours in defined CS-100 media (Cell Systems, Seattle, Wash.).

[2] = test system: T lymphocytes (Jurkat or Molt 4 cells); experiment: T lymphocyte adhesion to plasma fibronectin, tryptic fragments and CS peptides; assay type: cell-based, human
Description: (§3) Antibodies that would alter cell adhesion to purified plasma fibronectin, tryptic fragments and CS peptides were identified as previously described (Wayner and Carter, 1987). […] The plates were blocked with PBS supplemented with 10 mg/ml heat denatured BSA (HBSA). T lymphocyte or HT1080 cells were labeled with Na2 ^51CrO4 (50 μlCi/ml for 2–4 hr), washed, and 5×10^4 HT1080 or cultured T cells or […] were incubated with hybridoma culture supernatants (1:2 dilution in PBS supplemented with 1 mg/ml heat denatured BSA) or control myeloma cell culture supernatant for 15 minutes at room temperature. The cells were allowed to adhere to the protein-coated surfaces in the presence of the hybridoma supernatants for 15–30 minutes (HT1080) or 2–4 hours (lymphocytes) at 37° C. Non-adherent cells were removed by washing with PBS, and the adherent cells were dissolved in SDS/NaOH and bound ^51Cr-cpm were quantitated in a gamma counter.
Human plasma fibronectin was a generous gift from Drs. Horowitz and R. Schulman (New York Blood Center, N.Y.). […] Two overlapping peptides spanning the initial 48 residues of the IIICS region of human fibronectin (CS-1 and CS-2) were synthesized and coupled to rabbit IgG as described (Humphries et al., 1986, and Humphries et al., 1987, J. Biol. Chem. 262:6886–6892).

[3] = test system: Jurkat (T) lymphocyte adhesion to HUVE monolayers; experiment: Endothelial cell adhesion assay, Jurkat cells on HUVE monolayers; assay type: cell-based, human; settings: Table XI
Description: as §1, §2

K562-1 cells = experiment: Inhibition of K562 cell adhesion to plasma fibronectin and fragments; assay type: cell-based, human
Jurkat = experiment: Inhibition of Jurkat cell adhesion to plasma fibronectin and its fragments; assay type: cell-based, human
Description: as §3

[4] = test system: LAD (B) lymphocyte adhesion to HUVE monolayers; experiment: Endothelial cell adhesion assay, LAD cells on HUVE monolayers; assay type: cell-based, human; settings: Table XI
Description: as §1, §2

fibroblasts = experiment: Inhibition of fibroblast adhesion to plasma fibronectin; assay type: cell-based
Description: as §3

integrin α5β1 [5] = biological target: T1, integrin α5β1 (human, UniProt P08648 42-1049; P05556 21-798); experiment: adhesion of 51Cr-Molt 4 cells to plasma fibronectin-coated plastic with hybridoma supernatant; SP2 control 100%
T1 sequence (P08648 42-1049, chain 1 of 2): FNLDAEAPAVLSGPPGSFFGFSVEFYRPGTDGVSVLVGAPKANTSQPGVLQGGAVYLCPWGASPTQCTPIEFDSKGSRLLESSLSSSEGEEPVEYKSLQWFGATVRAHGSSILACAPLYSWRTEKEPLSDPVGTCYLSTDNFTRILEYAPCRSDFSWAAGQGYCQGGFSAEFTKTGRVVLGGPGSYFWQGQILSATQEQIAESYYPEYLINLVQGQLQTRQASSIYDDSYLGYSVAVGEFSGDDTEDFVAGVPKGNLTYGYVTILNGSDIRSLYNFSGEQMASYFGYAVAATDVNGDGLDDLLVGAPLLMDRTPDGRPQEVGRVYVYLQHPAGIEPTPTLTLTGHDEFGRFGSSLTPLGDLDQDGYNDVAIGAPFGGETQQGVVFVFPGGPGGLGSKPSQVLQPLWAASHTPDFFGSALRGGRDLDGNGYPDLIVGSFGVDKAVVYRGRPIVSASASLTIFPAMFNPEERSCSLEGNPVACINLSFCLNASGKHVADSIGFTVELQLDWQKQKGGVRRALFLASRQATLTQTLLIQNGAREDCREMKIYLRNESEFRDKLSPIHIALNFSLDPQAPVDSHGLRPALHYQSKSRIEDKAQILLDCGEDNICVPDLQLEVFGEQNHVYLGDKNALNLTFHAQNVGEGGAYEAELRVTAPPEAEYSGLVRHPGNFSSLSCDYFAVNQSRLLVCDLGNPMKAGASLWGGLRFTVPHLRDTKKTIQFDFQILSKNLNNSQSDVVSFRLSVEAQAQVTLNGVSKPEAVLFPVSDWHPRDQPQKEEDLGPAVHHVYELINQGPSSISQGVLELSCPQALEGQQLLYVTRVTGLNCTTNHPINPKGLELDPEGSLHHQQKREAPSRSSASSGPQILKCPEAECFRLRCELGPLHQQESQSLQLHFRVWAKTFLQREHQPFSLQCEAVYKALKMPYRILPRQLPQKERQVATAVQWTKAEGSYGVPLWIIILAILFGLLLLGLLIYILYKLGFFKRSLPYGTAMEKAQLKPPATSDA
T1 sequence (P05556 21-798, chain 2 of 2): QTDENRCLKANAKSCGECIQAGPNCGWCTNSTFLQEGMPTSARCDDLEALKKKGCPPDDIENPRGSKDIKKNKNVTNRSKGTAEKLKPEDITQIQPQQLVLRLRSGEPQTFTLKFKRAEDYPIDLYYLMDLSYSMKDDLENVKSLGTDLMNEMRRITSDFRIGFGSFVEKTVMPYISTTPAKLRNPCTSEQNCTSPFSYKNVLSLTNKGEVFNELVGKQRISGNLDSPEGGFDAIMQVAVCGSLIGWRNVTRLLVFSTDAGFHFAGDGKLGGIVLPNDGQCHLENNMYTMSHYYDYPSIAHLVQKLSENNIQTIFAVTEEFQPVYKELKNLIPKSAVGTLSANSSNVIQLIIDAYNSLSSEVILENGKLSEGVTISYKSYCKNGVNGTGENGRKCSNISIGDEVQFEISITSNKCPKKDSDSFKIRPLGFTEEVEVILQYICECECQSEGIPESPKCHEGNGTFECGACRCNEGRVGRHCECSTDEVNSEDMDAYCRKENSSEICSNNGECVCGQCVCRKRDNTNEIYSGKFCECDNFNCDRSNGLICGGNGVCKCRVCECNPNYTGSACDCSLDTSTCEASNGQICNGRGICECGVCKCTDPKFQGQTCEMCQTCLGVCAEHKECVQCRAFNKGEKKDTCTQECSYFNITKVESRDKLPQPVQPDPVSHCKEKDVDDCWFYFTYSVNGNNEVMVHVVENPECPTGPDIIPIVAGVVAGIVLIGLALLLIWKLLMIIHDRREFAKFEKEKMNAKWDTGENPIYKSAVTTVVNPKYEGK

integrin α5β1 [6] = biological target: T1, integrin α5β1; experiment: adhesion of T lymphocytes to CS-2 (rabbit IgG conjugate)-coated plastic with P1D6; IgG control […]
integrin α5β1 [7] = biological target: T1, integrin α5β1; experiment: adhesion of 51Cr-PBL to plasma fibronectin-coated plastic with hybridoma supernatant; SP2 control 100%
integrin α5β1 [8] = biological target: T1, integrin α5β1; experiment: adhesion of T lymphocytes to 38 kDa-coated plastic with P1D6; IgG control 22680
integrin α5β1 [9] = biological target: T1, integrin α5β1; experiment: adhesion of T lymphocytes to 80 kDa-coated plastic with P1D6; IgG control 8580
integrin α5β1 [10] = biological target: T1, integrin α5β1; experiment: adhesion of 51Cr-Jurkat cells to plasma fibronectin-coated plastic with hybridoma supernatant; SP2 control 100%
integrin α5β1 [11] = biological target: T1, integrin α5β1; experiment: adhesion of 51Cr-HT1080 cells to plasma fibronectin-coated plastic with hybridoma supernatant; SP2 control 100%
integrin α5β1 [12] = biological target: T1, integrin α5β1; experiment: cell-based or functional assay
integrin α5β1 [13] = biological target: T1, integrin α5β1; experiment: adhesion of T lymphocytes to CS-1 (rabbit IgG conjugate)-coated plastic with P1D6; IgG control 44339
integrin receptor α4β1 [14] = biological target: T2, integrin receptor α4β1 (human, UniProt P13612 34-1032; P05556 21-798); experiment: cell-based or functional assay
T2 sequence (P13612 34-1032, form in doubt, chain 1 of 2): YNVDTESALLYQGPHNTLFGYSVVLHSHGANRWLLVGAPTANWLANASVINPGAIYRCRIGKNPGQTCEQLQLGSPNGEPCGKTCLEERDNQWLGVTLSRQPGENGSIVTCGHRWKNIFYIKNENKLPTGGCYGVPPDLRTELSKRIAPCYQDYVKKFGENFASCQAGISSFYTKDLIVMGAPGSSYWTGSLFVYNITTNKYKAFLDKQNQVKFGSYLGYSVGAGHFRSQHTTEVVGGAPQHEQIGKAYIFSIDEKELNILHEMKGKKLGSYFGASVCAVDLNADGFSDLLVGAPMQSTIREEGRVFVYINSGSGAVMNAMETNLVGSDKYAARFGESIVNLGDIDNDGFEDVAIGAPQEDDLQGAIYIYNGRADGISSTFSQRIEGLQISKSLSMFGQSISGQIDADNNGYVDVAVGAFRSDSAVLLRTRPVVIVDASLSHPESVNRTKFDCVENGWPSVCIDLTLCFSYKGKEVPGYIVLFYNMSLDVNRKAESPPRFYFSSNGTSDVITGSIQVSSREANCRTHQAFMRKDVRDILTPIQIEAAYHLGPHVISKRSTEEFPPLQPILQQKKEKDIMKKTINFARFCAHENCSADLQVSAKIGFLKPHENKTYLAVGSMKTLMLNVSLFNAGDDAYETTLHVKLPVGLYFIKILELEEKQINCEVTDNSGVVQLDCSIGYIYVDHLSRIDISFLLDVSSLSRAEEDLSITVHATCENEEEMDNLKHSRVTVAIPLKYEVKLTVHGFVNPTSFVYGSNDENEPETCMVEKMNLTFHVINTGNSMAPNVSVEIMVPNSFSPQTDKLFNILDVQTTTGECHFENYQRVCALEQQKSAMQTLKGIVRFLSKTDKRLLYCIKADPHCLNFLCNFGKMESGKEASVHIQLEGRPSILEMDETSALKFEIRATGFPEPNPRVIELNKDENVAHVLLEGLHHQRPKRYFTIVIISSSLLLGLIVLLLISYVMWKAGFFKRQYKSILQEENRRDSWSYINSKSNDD
T2 sequence (P05556 21-798, form in doubt, chain 2 of 2): as the sequence (P05556 21-798, chain 2 of 2) above

integrin receptor α4β1 [15] = biological target: T2, integrin receptor α4β1; experiment: adhesion of 51Cr-Molt 4 cells to plasma fibronectin-coated plastic with hybridoma supernatant; SP2 control 100%
integrin receptor α4β1 [16] = biological target: T2, integrin receptor α4β1; experiment: adhesion of 51Cr-PBL to plasma fibronectin-coated plastic with hybridoma supernatant; SP2 control 100%
integrin receptor α4β1 [17] = biological target: T2, integrin receptor α4β1; experiment: adhesion of T lymphocytes to 38 kDa-coated plastic with P4C2; IgG control 22680
integrin receptor α4β1 [18] = biological target: T2, integrin receptor α4β1; experiment: adhesion of T lymphocytes to CS-2 (rabbit IgG conjugate)-coated plastic with P4C2; IgG control […]
integrin receptor α4β1 [19] = biological target: T2, integrin receptor α4β1; experiment: adhesion of 51Cr-Jurkat cells to plasma fibronectin-coated plastic with hybridoma supernatant; SP2 control 100%
integrin receptor α4β1 [20] = biological target: T2, integrin receptor α4β1; experiment: adhesion of T lymphocytes to 80 kDa-coated plastic with P4C2; IgG control 8580
integrin receptor α4β1 [21] = biological target: T2, integrin receptor α4β1; experiment: adhesion of 51Cr-HT1080 cells to plasma fibronectin-coated plastic with hybridoma supernatant; SP2 control 100%
integrin receptor α4β1 [22] = biological target: T2, integrin receptor α4β1; experiment: adhesion of T lymphocytes to CS-1 (rabbit IgG conjugate)-coated plastic with P4C2; IgG control 44339
integrin receptor α4β1 [23] = biological target: T2, integrin receptor α4β1; experiment: T lymphocyte adhesion to coated fragments
integrin receptor α4β1 [24] = biological target: T2, integrin receptor α4β1; experiment: adhesion of Jurkat and Molt 4 cells to coated fragments
integrin receptor α4β1 [25] = biological target: T2, integrin receptor α4β1; experiment: adhesion of 51Cr-Jurkat cells to surfaces coated with graded peptide-rsa conjugate; 50% of total input cpm, read from plot
Description: Therefore, peptide-conjugates were prepared using rabbit serum albumin (rsa) as a carrier and the conjugates were tested for their ability to support cell adhesion. […] The adhesion experiments presented in Table XIV were conducted as follows:
(No adhesion=no measurable adhesion above negative controls.)

Molecule: Arg-Gly-Asp-Ser (RGDS) [reference compound]
- Adhesion (cpm) +IL-1β ([1]; IL-1β activated HUVE, no peptide 12936): 28104 cpm
- Adhesion (cpm) Basal ([1]; basal HUVE, no peptide 2724): 16920 cpm
- Inhibition of adhesion to plasma fibronectin ([2]; Molt 4 or Jurkat cells): 50–70%
- Adhesion (cpm) +IL-1β ([3]; IL-1β activated HUVE, no peptide 314848): 357616 cpm
- Adhesion (cpm) Basal ([3]; basal HUVE, no peptide 161092): 298688 cpm
- Inhibition of adhesion to plasma fibronectin (K562-1 cells): 100%
- Inhibition of Jurkat cell adhesion to intact fibronectin (Jurkat; 1 mg/ml): 50%
- Inhibition of Jurkat cell adhesion to the 80 kDa fragment (Jurkat; 1 mg/ml): 100%
- Effect on Jurkat cell adhesion to the 38 kDa fragment (Jurkat; up to 1 mg/ml): unaffected
- Adhesion (cpm) +IL-1β ([4]; IL-1β activated HUVE, no peptide 71408): 102076 cpm
- Adhesion (cpm) Basal ([4]; basal HUVE, no peptide 44860): 70652 cpm
- Inhibition of adhesion to plasma fibronectin (fibroblasts): 80–90%

Molecule: monoclonal antibody P1D6
- Fibronectin Adhesion (% Control) (integrin α5β1 [5]): 18 % Control
- T lymphocyte adhesion (unit not given) (integrin α5β1 [6]): 435
- Fibronectin Adhesion (% Control) (integrin α5β1 [7]): 43 % Control
- T lymphocyte adhesion (unit not given) (integrin α5β1 [8]): 24900
- T lymphocyte adhesion (unit not given) (integrin α5β1 [9]): 202
- Fibronectin Adhesion (% Control) (integrin α5β1 [10]): 22 % Control
- Fibronectin Adhesion (% Control) (integrin α5β1 [11]): 5 % Control
- Adhesion (cpm), Jurkat (T) on HUVE monolayers, +IL-1β; SP2 control 372159 (integrin α5β1 [12]): 418000 cpm
- Adhesion (cpm), Jurkat (T) on HUVE monolayers, Basal; SP2 control 83924 (integrin α5β1 [12]): 84000 cpm
- Adhesion (cpm), LAD (B) on HUVE monolayers, +IL-1β; SP2 control 104672 (integrin α5β1 [12]): 114000 cpm
- Adhesion (cpm), LAD (B) on HUVE monolayers, Basal; SP2 control 19542 (integrin α5β1 [12]): 15700 cpm
- Adhesion (cpm), Ramos (B) on HUVE monolayers, +IL-1β; SP2 control 12157 (integrin α5β1 [12]): 11200 cpm
- Adhesion (cpm), Ramos (B) on HUVE monolayers, Basal; SP2 control 972 (integrin α5β1 [12]): 808 cpm
- T lymphocyte adhesion (unit not given) (integrin α5β1 [13]): 42900

Molecule: monoclonal antibody P4C2
- Adhesion (cpm), Jurkat (T) on HUVE monolayers, +IL-1β; SP2 control 372159 (integrin receptor α4β1 [14]): 137000 cpm
- Adhesion (cpm), Jurkat (T) on HUVE monolayers, Basal; SP2 control 83924 (integrin receptor α4β1 [14]): 23100 cpm
- Adhesion (cpm), LAD (B) on HUVE monolayers, +IL-1β; SP2 control 104672 (integrin receptor α4β1 [14]): 38100 cpm
- Adhesion (cpm), LAD (B) on HUVE monolayers, Basal; SP2 control 19542 (integrin receptor α4β1 [14]): 6460 cpm
- Adhesion (cpm), Ramos (B) on HUVE monolayers, +IL-1β; SP2 control 12157 (integrin receptor α4β1 [14]): 3690 cpm
- Adhesion (cpm), Ramos (B) on HUVE monolayers, Basal; SP2 control 972 (integrin receptor α4β1 [14]): 456 cpm
- Fibronectin Adhesion (% Control) (integrin receptor α4β1 [15]): 8 % Control
- Fibronectin Adhesion (% Control) (integrin receptor α4β1 [16]): 10 % Control
- T lymphocyte adhesion (unit not given) (integrin receptor α4β1 [17]): 114
- T lymphocyte adhesion (unit not given) (integrin receptor α4β1 [18]): 535
- Fibronectin Adhesion (% Control) (integrin receptor α4β1 [19]): 12 % Control
- T lymphocyte adhesion (unit not given) (integrin receptor α4β1 [20]): 7150
- Fibronectin Adhesion (% Control) (integrin receptor α4β1 [21]): 93 % Control
- T lymphocyte adhesion (unit not given) (integrin receptor α4β1 [22]): 841

B1: 38 kDa tryptic fragment of plasma fibronectin (ligand, human, UniProt P02751-8 1589-1968, looked up)
chain: TAGPDQTEMTIEGLQPTVEYVVSVYAQNPSGESQPLVQTAVTTIPAPTDLKFTQVTPTSLSAQWTPPNVQLTGYRVRVTPKEKTGPMKEINLAPDSSSVVVSGLMVATKYEVSVYALKDTLTSRPAQGVVTTLENVSPPRRARVTDATETTITISWRTKTETITGFQVDAVPANGQTPIQRTIKPDVRSYTITGLQPGTDYKIYLYTLNDNARSSPVVIDASTAIDAPSNLRFLATTPNSLLVSWQPPRARITGYIIKYEKPGSPPREVVPRPRPGVTEATITGLEPGTEYTIYVIALKNNQKSEPLIGRKKTDELPQLVTLPHPNLHGPEILDVPSTVQKTPFVTHPGYDTGNGIQLPGTSGQQPSVGQQMIFEEHGFR
notes: domain: Hep II and first 67 residues of IIICS (38 kDa tryptic fragment); also called CTCBD fragment
- Efficiency in mediating T lymphocyte adhesion, on a molar basis ([2]; compared with the 58 kDa fragment): three times more efficient than the 58 kDa fragment
- efficiency in mediating T lymphocyte adhesion relative to the 58 kDa fragment (molar basis) (integrin receptor α4β1 [23]): 3 times

B2: 58 kDa tryptic fragment of plasma fibronectin (ligand, human, UniProt P02751-10 1589-2125, looked up)
chain: TAGPDQTEMTIEGLQPTVEYVVSVYAQNPSGESQPLVQTAVTTIPAPTDLKFTQVTPTSLSAQWTPPNVQLTGYRVRVTPKEKTGPMKEINLAPDSSSVVVSGLMVATKYEVSVYALKDTLTSRPAQGVVTTLENVSPPRRARVTDATETTITISWRTKTETITGFQVDAVPANGQTPIQRTIKPDVRSYTITGLQPGTDYKIYLYTLNDNARSSPVVIDASTAIDAPSNLRFLATTPNSLLVSWQPPRARITGYIIKYEKPGSPPREVVPRPRPGVTEATITGLEPGTEYTIYVIALKNNQKSEPLIGRKKTGQEALSQTTISWAPFQDTSEYIISCHPVGTDEEPLQFRVPGTSTSATLTGLTRGATYNVIVEALKDQQRHKVREEVVTVGNSVNEGLNQPTDDSCFDPYTVSHYAVGDEWERMSESGFKLLCQCLGFGSGHFRCDSSRWCHDNGVNYKIGEKWDRQGENGQMMSCTCLGNGKGEFKCDPHEATCYDDGKTYHVGEQWQKEYLGAICSCTCFGGQRGWRCDNCRR
notes: domain: Hep II and Fib II (58 kDa tryptic fragment)
- maximum cell attachment relative to the 38 kDa fragment (integrin receptor α4β1 [24]): 30%

B3: rsa-CS-1 (peptide)
peptide: DELPQLVTLPHPNLHGPEILDVPST
modifications: also: conjugated to SMCC-derivatized rabbit serum albumin
notes: also called CS-1-rsa; CS-1 (RSA conjugate)
- Molar Concentration required for 50% adhesion of Jurkat cells (integrin receptor α4β1 [25]): 115 nM

Molecule: LHGPEILDVPST (also: conjugated to SMCC-derivatized rabbit serum albumin, also called B12-rsa conjugate) [rsa-B12]
- Molar Concentration required for 50% adhesion of Jurkat cells (integrin receptor α4β1 [25]): 492 nM

Molecule: EILDV (also: conjugated to SMCC-derivatized rabbit serum albumin, also called EILDV-RSA) [rsa-EILDV]
- Molar Concentration required for 50% adhesion of Jurkat cells (integrin receptor α4β1 [25]): 1130 nM

Source: patent US7238668B1, “Inhibition of lymphocyte adherence with CS-1-peptides and fragments thereof” (Fred Hutchinson Cancer Research Center, priority 1989, dated 2007)
